# Measured values reported in the DeepSol protein solubility set.
# Test: soluble on expression in E. coli; label from the status in PepcDB or PDB records
row,Sequence,soluble on expression in E. coli
1,MRIGIVCPYSFDAPGGVQAHVLDLAEKFISQGHHVEVLGPASESTQLPDFVTRGGASLPIPYNGSVARLSFGPSTFIRARDFINRGQFDVLHIHEPNSPSFSMAALKVARGPIVATYHASSNRSLALKFALPFLRGQLEKIRGGIAVSEMARRWQVEMLGGDPILIPNGVETSQFELDKKPLWSGRIPEIVFLGRLDEHRKGLDILLRAVDRLDHEVRVTVIGGGTHPPAPRIDFVGRVSDEEKAEILGRADIYVAPNRGGESFGIVLVEAMAAGCVVVASDLEAFSAVCDAQSSQPSGILFRNGDADDLASTLRNVIENPKFGQELVTSGTQRAKEFDWDNVSKEIMRVYETVCDGTTVTAA,not soluble
2,MSLYKADMLGDAYEYLIKQFADDAGKKGGEFYTPKAVVQLVVELIDPRPGHSVYDPTCGSGGMLVESAHHVSGLPDGTLMGKPNVLLYGQEKNLGTWAIAKLNLYLHNMHASIERGDTLVEPKHLDGDYLKTFDRVIANPPFSAKSWWTPLELSNENEQENGKKVKAPNYKQVSDPYGRLVYGVPPRGYADLAFAQHMLASLKADGRMGVILPHGVLFRSGEEGKIREGLLFGTGAASGNQPGDVIEAIVGLPSALFYNTGIPACVLILNKQKPSALKDKVIIIDGSRDYLEGKAQNSLHAEDILRIVSTHKAAFEQQVEVENYCRLVTLDEIRSNDGNLNIVRYIDNGESDEVVNVAATLAHMATLAKEEAQIDQRLNRYLMELGLLETGEGHHHHHH,not soluble
3,MAHHHHHHMAPQSPSEWDNARRAAKRALTISDEYPPATVERIQKLLQRAETTSNDAVLLSELKSLVQSYFQSPQSLQFLRKERVASKGGGIGVVAARKIPAFSIIGVYPGYLDFMSGEQAKCGRPVPKYALMEYNCANYFNEVFVELQTTFTPFINEPNVDEKSNCAWIQEPHRKNGRLSVICVRDIQEGEELTIGYGPIYPRTYPYCYDAYACHQIEGHTTHPCYSLWHWPTLQEADARFVCHIGYIERDDCYVLWKNET,not soluble
4,MGSDKIHHHHHHMSSVHAINQSYWFSTQLPHVESRTTRNSSHAYKTHSHAQFSIGAIEHGETLCHYRNETHHLQAGDLIFIDPQQPHSCNPPPGKMRSYHMLYLDTAWCLDQIAVHCNYQADSLRCNRVVLRDPTLFIRYQHLITLLHRGEITSADSLLNAMLTPVWQQYCLPEPALPHQALQTTTRHVRERLLNNLQESPSLETLADELNLRRETIVRQFRHDTGITPMAFLNNARIEYAKSLLKQGTPLVDTSYQSGFCDQSHFHKTFVQYTSATPGQYARSIFDNK,not soluble
5,MIGTAVKELLLEKQETFLVPAENVANVMCLNPLSHAALVLSQVRYSKIPVLDKGDRFVGLIGLTDVVDKMFDLTSVDFEKLNEFTVADVMEVNVPVIGESWDLEEVLHLLVDASFLPVVDDNQRFKGIITRKEILKAVNHMAHELEKHHLVLPKSEEEMKVI,not soluble
6,MSLGYLNNVTGYREDLLANRAIVKHGNFALLTPDGLVKNIIPGFENCDATILSTPKLGASFVDYLVTLHQNGGNQQGFGGEGIETFLYVISGNITAKAEGKTFALSEGGYLYCPPGSLMTFVNAQAEDSQIFLYKRCYVPVEGYAPWLVSGNASELERIHYEGMDDVILLDFLPKELGFDMNMHILSFAPGASHGYIETHVQEHGAYILSGQGVYNLDNNWIPVKKGDYIFMGAYSLQAGYGVGRGEAFSYIYSKDCNRDVEIEGGSHHHHHH,soluble
7,MGSDKIHHHHHHMMTISNGNLRVDLRLIADMVEPGSRVLDVGCGEGALLDWLGRTKNVDGRGIELSMAGVSAAVSHGLSVIQGDADTDLKDYPSGAFDYVILSQTLQATYAPRTVLSNMLRIGRRAIVSFPNFGHWRVRLHLLTHGRMPVTDTLAYEWYDTPNIHFCTIRDFLDLCRDLGIRVERSIPLDRSGRTMAIPSCEGIANLFADQGLFVLSREG,not soluble
8,MGSDKIHHHHHHMSRIENQFTVQFWGVRGSIPSPGPHTVRYGGNTPCISMQAGDKRLVFDAGTGLHVLGQSWLRQMPLEGHIFFTHSHWDHMQGFPFFTPGFVKGNDFHIYGAIAPDGSTIEQRLNDQMLHPNFPVPLQIMQANLKFYDIRPGQPIHIDDVTVETAPLNHPGEAVGYRVNWRGGAVAYITDTEHFPDRLDDNVLWLARNADILVYDSTYTDEEYHSPKTPKIGWGHSTWQEAVKVAQAANVKTLVIYHHDPAHNDDFLDCVGQQASEKFPGAIMAREGMVLQIPTSVALSESFPVSKFST,not soluble
9,MGSDKIHHHHHHMALAKLPQLESVFLTDAGLETDFIFNRGIDLPYFASITLLQSSDGKIALEEYFRGFLELARRMRCGLILESATWRASPDWAEPLGLSQQELDTLNTSAIAILRDLRDEFGSTMPAVVISGCLGPRGDGYDPGKIMSEEGAEAYHRHQAEVLASAGVDQLTAITMTNVPEAIGIAKAAKSLAVPVAISFTVETDGRLPTGDRLSDALRAVDQATASTPAYYMINCAHPSHFAAVLEDGADWVNRIGGLRANASRCSHAEVDAMSELDRGNPEELAALHSELRLRFPHINVLGGCCGTDLDHITAIAEACL,not soluble
10,MKDWFMNLLYYLKRPFIRLSRFRYRCGYGVHSPFAFSLITDVIYEKMPYYAYDLLKVEQKKRITTQRWEKGIPRINRLLFRLVNKVQPATIIEVGQPSAASLYLQSAKPSAGYLFASDLSELFLDADTPVDFLYLNDYRNPALLEEVFNICSRRTTPNSLFVVHGICYSKAMKNLWKQLQNDERVGITFDLYDAGLLFFDTTKIKQHYIVNF,not soluble
11,MGSDKIHHHHHHAGFIFLPKENETASTTVEEVKWLTYDQAVALSKKNPKPIFIDVYTDWCGWCKTMDKNTFSNHKVAAYLNKRFYSVKLNPEKKDTVHYKGVAMTNGALAGKIFHATSYPTTVYLEGDETLLQPIPGYQAPNDLYRIIHYIGENHYKTTTWDDFSKSFNESAE,not soluble
12,MRKEAIYHRPADNFAYAYDSETLHLRLRTKKDDIDRVELLHGDPYDWQNGAWQFQMMPMRKTGSDELFDYWFAEVKPPYRRLRYGFVLYSGEEKLVYTEKGFYFEVPTDDTAYYFCFPFLHRVDLFEAPDWVKDTVWYQIFPERFANGNPSISPEGSRPWGSEDPTPTSFFGGDLQGIIDHLDYLVDLGITGIYLTPIFRSPSNHKYDTADYFEVDPHFGDKETLKTLIDRCHEKGIRVMLDAVFNHCGYEFAPFQDVWKNGESSKYKDWFHIHEFPLQTEPRPNYDTFAFVPQMPKLNTANPEVKRYLLDVATYWIREFDIDGWRLDVANEIDHEFWREFRQEVKALKPDVYILGQIWHDAMPWLRGDQFDAVMNYPFTDGVLRFFAKEEISARQFANQMMHVLHSYPNNVNEAAFNLLGSHDTSRILTVCGGDIRKVKLLFLFQLTFTGSPCIYYGDEIGMTGGNDPECRKCMVWDPMQQNKELHQHVKQLIALRKQYRSLRRGEISFLHADDEMNYLIYKKTDGDETVLVIINRSDQKADIPIPLDARGTWLVNLLTGERFAAEAETLCTSLPPYGFVLYAIEHW,soluble
13,MSLDAITVDLNYDKNNVAVITPVWSQEWSVANVLGGWVCRSNRNENEGACEETHLVWWYAFGAYSKIRLRFREQISHAEITLILLGSVRDACYTGVINMNAAACQWGRSLKLRIPSEELAKIPTSGTWKATLVLDYLQWGGDDPLGTSTTDITLNVTDHFAENAAIYFPQFGTATPRVDLNLHRMNASQMSGRANLDMCLYDGGVKARSLQMKIEGSNKSGTGFQVIKSDSADTIDYAVSMNYGGRSIPVTRGVEFSLDNVDKAATRPVVLPGQRQAVRCVPVPLTLTTQPFNIREKRSGEYQGTLTVTMLMGTQTPEGHHHHHH,not soluble
14,MKKIFMMVHELDVNKGGMTSSMFNRSKEFYDADIPADIVTFDYKGNYDEIIKALKKQGKMDRRTKMYNVFEYFKQISNNKHFKSNKLLYKHISERLKNTIEIEESKGISRYFDITTGTYIAYIRKSKSEKVIDFFKDNKRIERFSFIDNKVHMKETFNVDNKVCYQVFYDEKGYPYISRNINANNGAVGKTYVLVNKKEFKNNLALCVYYLEKLIKDSKDSIMICDGPGSFPKMFNTNHKNAQKYGVIHVNHHENFDDTGAFKKSEKYIIENANKINGVIVLTEAQRLDILNQFDVENIFTISNFVKIHNAPKHFQTEKIVGHISRMVPTKRIDLLIEVAELVVKKDNAVKFHIYGEGSVKDKIAKMIEDKNLERNVFLKGYTTTPQKCLEDFKLVVSTSQYEGQGLSMIEAMISKRPVVAFDIKYGPSDFIEDNKNGYLIENHNINDMADKILQLVNNDVLAAEFGSKARENIIEKYSTESILEKWLNLFNS,not soluble
15,MSVPFLQQYRVGSYILKQKLAGNKRYPLVLMLEPLFQCNLACAGCGKIDYPEETLRRRLSVDECLHAVDECGAPVVSIAGGEPLIHKEMPQIVQGIIQRKKFVYLCTNALLLDTRMDDYQPSPYLTFSIHLDGNRERHDASVCREGVYDKVIPVIEQALQRGFRVTVNCTLFQSETAEEVAEFFDTATKLGVEGINVSPGFSYEHAPRQDVFLQRSVSKRLFRSIFEIGKKRKLPWKFNHSSLYLDFLAGNQSYKCTPWGNPTRNLFGWQRPCYLLVDEGYATSFRELMEETDWDRYGVGNNPKCANCMAHCGFEPTAINDTFAHPLKALRVSMRGPRVEGPMALDPLQTSSESQHNTDKRKPFPIPVTVEHKTVAPSSDHSSGPDN,not soluble
16,MSGHKCSYPWDLQDRYAQDKSVVNKMQQKYWETKQAFIKATGKKEDEHVVASDADLDAKLELFHSIQRTCLDLSKAIVLYQKRICFLSQEENELGKFLRSQGFQDKTRAGKMMQATGKALCFSSQQRLALRNPLCRFHQEVETFRHRAISDTWLTVNRMEQCRTEYRGALLWMKDVSQELDPDLYKQMEKFRKVQTQVRLAKKNFDKLKMDVCQKVDLLGASRCNLLSHMLATYQTTLLHFWEKTSHTMAAIHESFKGYQPYEFTTLKVWKLEGPLENLEKSKVLFISQAKSIAESIIIPGLRMLKRELCPQQSLFLSFFLFFYCIRIQYNENLLQSKSAN,soluble
17,MGSDKIHHHHHHMYLKISHTTEYHYDEPVQYALQRLRLTPVNLPGQTVRNWKTLVDGAAIEVSYDDQFGNRTHLVSLDADRTTLCIEANGEVETEDRAGVFGAHQSYVPLWLYARETPLTKPGKRIRELAKAAGGATELERMHALMAIIHETVRYEQGETQVGTSAEEALERGKGVCQDHAHILISAARTLGLPARYVSGYLMMEDHPQQTASHAWADVHIAGLGWVGFDPANKVCPDDRYVRIASGLCYRDAAPVSGLVHGTGTETLKVAVTVEQQGQSQAQN,not soluble
18,MIAMAQQDVKPTRSELINLKKKIKLSESGHKLLKMKRDGLILEFFKILNEARNVRTELDAAFAKSTEKINLASAVNGMVAVRSTAFTAKESPEIQLSGHNIMGVVVPKISSTGVRKSLYERGYGIIGTNSYIDETADAYEDLVEKIITAAELETTMKRLLDEIEKTKRRVNALEFKVIPELIDTMKYIRFMLEEMERENTFRLKRVKARMRDLEHHHHHH,not soluble
19,MRGSHHHHHHTDPALRALVSSNVTMQFGSKPLFENISVKFGGGNRYGLIGANGSGKSTFMKILGGDLEPTLGNVSLDPNERIGKLRQDQFAFEEFTVLDTVIMGHKELWEVKQERDRIYALPEMSEEDGYKVADLEVKYGEMDGYSAEARAGELLLGVGIPVEQHYGPMSEVAPGWKLRVLLAQALFADPDILLLDEPTNNLDIDTIRWLEQVLNERDSTMIIISHDRHFLNMVCTHMADLDYGELRVYPGNYDEYMTAATQARERLLADNAKKKAQIAELQSFVSRFSANASKSRQATSRARQIDKIKLEEVKASSRQNPFIRFEQDKKLFRNALEVEGLTKGFDNGPLFKNLNLLLEVGEKLAVLGTNGVGKSTLLKTLVGDLQPDSGTVKWSENARIGYYAQDHEYEFENDLTVFEWMSQWKQEGDDEQAVRSILGRLLFSQDDIKKPAKVLSGGEKGRMLFGKLMMQKPNILIMDEPTNHLDMESIESLNMALELYQGTLIFVSHDREFVSSLATRILEITPERVIDFSGNYEDYLRSKGIEGLCGR,soluble
